In patent US20150377889A1, “GALECTIN-3 AS A MARKER FOR PROSTATE CANCER” (Wayne State University, priority 2013, published 2015):

Columns and labels:
[1] = system: co-cultured BAMEC and LNCaP cells; assay: Three-dimensional growth and tube formation assay, BAMEC/LNCaP co-culture on […]; assay type: cell-based, bovine, human
Protocol: Three-dimensional Growth and Tube Formation Assay. To analyze in vitro angiogenesis and interactions between epithelial and endothelial cell formation of tubular networks by co-cultured BAMEC and LNCaP cells, a three-dimensional growth and tube formation assay was performed. Briefly, […]® (10 μl) was added to each chamber of the slide (μ-Slide, ibidi, Martinsried, Germany) and gelled by a 30-min incubation at room temperature, after which 15,000 BAMEC and 5000 LNCaP cells were plated onto the gel in 50 μl of Eagle's minimal essential complete medium. In some chambers, full-length galectin-3 or its fragments were added. After 36 hr, three-dimensional structures were observed under phase contrast microscope and photographed. Images were acquired with an Olympus IX71 microscope supporting a Hamamatsu ORCA-ER video camera. Tube formation image analysis was done using the web-based Image Analysis Win-Tube module of Wimasis online software.
Three-dimensional heterotypic co-cultures of epithelial (LNCaP) and endothelial (BAMEC) cells were performed on […]® to study tube formation in the presence of 10 μg/ml galectin-3 and its fragments. […] FIG. 2B presents a quantitative evaluation of the tube formation assay.

[2] = system: LNCaP, Du145, and PC3M cell lines; assay: Wound-healing (scratch) assay; assay type: cell-based, human; settings: 24 hr, compared with the control
Protocol: Wound-healing Assay. A wound-healing assay, the scratch assay, was performed according to the protocol published in Liang, et al. (2007), Nat. Protoc. 2, 329-333. Briefly, in this scratch assay 60-mm dishes were coated with ECM and incubated overnight, unbound ECM was removed and the dishes were blocked with bovine serum albumin. Subconfluent growing cells were resuspended in a tissue culture dish by washing cells with PBS, adding versene containing trypsin, and mixing cells with medium containing serum. Cells were then plated onto the prepared 60-mm dish to create a confluent monolayer, and incubated for 6 hr at 37° C.
The cell lines LNCaP (null galectin-3), DU145 (stable clone with reduced galectin-3 expression), and PC3M were used to examine the effect of full-length galectin-3, galectin-3 1-107, and galectin-3 108-250 on prostate cancer cell motility using the scratch assay. The assay was performed with LNCaP, Du145, and PC3M cultured cell lines stimulated by full-length galectin-3, and fragments galectin-3 1-107 and 108-250. A uniform wound was made in each plate using a 1-μl pipette tip. The wound area was observed immediately, then at 24 hr after creation the cells were counted. Cells were grown under identical conditions.

B1: galectin-3 1-107: recombinant fragment 1-107 of human galectin-3 (SEQ ID NO:2), NH2-terminal domain with collagen-like sequence (protein, listed as Homo sapiens)
chain: MADNFSLHDALSGSGNPNPQGWPGAWGNQPAGAGGYPGASYPGAYPGQAPPGAYPGQAPPGAYPGAPGAYPGAPAPGVYPGPPSGPGAYPSSGQPSATGAYPATGPY
[1]; 10 μg/ml protein added to medium, 36 hr, control 0
  tube formation: loops: 0
[1]; 10 μg/ml protein, BAMEC/LNCaP co-culture
  branching morphogenesis of endothelial cells: failed to do so
[2]
  prostate cancer cell motility: did not show a significant increase in motility
